Assay results: article PMC3934934, “The Self-Interaction of a Nodavirus Replicase Is Enhanced by Mitochondrial Membrane Lipids” (PLoS ONE, 2014)

Tests used:
Assay in all cases: pull-down; MBP fusion protein (1 µM) held on amylose resin, His-tagged protein (1 µM) in vitro translated in rabbit reticulocyte lysate; room temperature, 4 hrs; no lipids; Western blot with anti-His; signals given as % of FL to FL protein A self-interaction
Conditions in all cases: one partner purified
[1] = target: T1, MBP-protA fragment aa 481–659 (Wuhan nodavirus (WhNV), UniProt Q3KSM3 481-659)
T1 construct: source: E. coli strain TB1, purified (amylose resin); not shown: MBP, N-terminal, kept
T1 sequence: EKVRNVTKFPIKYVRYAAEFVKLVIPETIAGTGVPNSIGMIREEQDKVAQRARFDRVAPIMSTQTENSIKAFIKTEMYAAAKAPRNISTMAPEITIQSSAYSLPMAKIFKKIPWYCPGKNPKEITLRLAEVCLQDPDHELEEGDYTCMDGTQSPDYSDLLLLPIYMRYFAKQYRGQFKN

[2] = target: T2, MBP-protA fragment aa 1–480 (Wuhan nodavirus (WhNV), UniProt Q3KSM3 1-480)
T2 construct: also called 1–480 MBP/protA; source: E. coli strain TB1, purified (amylose resin); not shown: MBP, N-terminal, kept
T2 sequence: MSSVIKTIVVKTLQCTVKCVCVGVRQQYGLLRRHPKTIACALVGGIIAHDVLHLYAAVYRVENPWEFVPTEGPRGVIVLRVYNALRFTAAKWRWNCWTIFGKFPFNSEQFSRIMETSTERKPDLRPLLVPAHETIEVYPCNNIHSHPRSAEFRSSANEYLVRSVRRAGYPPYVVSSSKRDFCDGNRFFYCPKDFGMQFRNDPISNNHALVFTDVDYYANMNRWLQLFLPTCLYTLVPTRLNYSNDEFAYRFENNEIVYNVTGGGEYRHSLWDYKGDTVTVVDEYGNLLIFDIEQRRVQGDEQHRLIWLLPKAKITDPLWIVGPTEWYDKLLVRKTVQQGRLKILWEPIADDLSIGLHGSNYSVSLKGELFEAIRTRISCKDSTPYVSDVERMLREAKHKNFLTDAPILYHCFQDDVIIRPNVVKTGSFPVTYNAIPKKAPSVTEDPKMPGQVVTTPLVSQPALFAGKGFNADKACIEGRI

[3] = target: T3, MBP-protA fragment aa 1–839 (Wuhan nodavirus (WhNV), UniProt Q3KSM3 1-839)
T3 construct: also called 1–839 MBP/protA; source: E. coli strain TB1, purified (amylose resin); not shown: MBP, N-terminal, kept
T3 sequence: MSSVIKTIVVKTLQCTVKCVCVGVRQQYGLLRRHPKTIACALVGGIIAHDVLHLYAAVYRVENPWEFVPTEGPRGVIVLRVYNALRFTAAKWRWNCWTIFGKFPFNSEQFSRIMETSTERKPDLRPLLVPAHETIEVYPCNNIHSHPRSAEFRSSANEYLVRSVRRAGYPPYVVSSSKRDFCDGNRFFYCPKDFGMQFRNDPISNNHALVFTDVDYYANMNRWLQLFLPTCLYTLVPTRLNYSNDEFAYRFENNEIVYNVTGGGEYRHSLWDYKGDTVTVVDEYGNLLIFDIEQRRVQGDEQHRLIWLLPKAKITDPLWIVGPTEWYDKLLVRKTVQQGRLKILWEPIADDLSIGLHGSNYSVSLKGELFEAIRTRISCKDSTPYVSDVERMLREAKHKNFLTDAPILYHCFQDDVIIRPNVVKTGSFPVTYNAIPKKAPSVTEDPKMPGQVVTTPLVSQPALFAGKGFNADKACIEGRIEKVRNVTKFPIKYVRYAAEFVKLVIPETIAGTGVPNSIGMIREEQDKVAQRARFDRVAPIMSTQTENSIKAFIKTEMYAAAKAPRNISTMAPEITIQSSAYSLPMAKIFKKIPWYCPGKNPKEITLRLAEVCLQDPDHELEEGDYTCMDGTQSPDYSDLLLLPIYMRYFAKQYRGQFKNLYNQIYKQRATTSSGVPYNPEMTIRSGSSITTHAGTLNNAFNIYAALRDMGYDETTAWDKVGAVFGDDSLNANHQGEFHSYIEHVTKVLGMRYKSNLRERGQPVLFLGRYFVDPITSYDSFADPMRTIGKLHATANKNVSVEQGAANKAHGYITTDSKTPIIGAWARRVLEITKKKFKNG

[4] = target: T4, MBP-protA fragment aa 1–659 (Wuhan nodavirus (WhNV), UniProt Q3KSM3 1-659)
T4 construct: also called 1–659 MBP/protA; source: E. coli strain TB1, purified (amylose resin); not shown: MBP, N-terminal, kept
T4 sequence: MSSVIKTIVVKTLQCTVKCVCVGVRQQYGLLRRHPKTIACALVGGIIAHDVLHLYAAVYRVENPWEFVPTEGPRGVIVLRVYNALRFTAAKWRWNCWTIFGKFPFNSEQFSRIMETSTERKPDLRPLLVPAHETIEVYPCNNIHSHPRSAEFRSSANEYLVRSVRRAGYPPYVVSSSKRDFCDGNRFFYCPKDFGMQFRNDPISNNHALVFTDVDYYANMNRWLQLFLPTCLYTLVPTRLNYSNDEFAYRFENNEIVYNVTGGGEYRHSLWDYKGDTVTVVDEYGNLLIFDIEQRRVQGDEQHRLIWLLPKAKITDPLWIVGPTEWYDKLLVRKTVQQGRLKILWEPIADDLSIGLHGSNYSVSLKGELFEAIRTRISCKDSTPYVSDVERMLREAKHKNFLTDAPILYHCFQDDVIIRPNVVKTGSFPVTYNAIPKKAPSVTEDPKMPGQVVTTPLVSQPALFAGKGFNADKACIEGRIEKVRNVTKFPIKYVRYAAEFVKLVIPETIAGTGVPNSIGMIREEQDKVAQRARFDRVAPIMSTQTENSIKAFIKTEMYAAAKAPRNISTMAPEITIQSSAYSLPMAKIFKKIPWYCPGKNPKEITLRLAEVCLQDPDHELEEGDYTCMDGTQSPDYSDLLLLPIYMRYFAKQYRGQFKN

B1: His-tagged WhNV protein A, in vitro translated (natural protein)
chain: MSSVIKTIVVKTLQCTVKCVCVGVRQQYGLLRRHPKTIACALVGGIIAHDVLHLYAAVYRVENPWEFVPTEGPRGVIVLRVYNALRFTAAKWRWNCWTIFGKFPFNSEQFSRIMETSTERKPDLRPLLVPAHETIEVYPCNNIHSHPRSAEFRSSANEYLVRSVRRAGYPPYVVSSSKRDFCDGNRFFYCPKDFGMQFRNDPISNNHALVFTDVDYYANMNRWLQLFLPTCLYTLVPTRLNYSNDEFAYRFENNEIVYNVTGGGEYRHSLWDYKGDTVTVVDEYGNLLIFDIEQRRVQGDEQHRLIWLLPKAKITDPLWIVGPTEWYDKLLVRKTVQQGRLKILWEPIADDLSIGLHGSNYSVSLKGELFEAIRTRISCKDSTPYVSDVERMLREAKHKNFLTDAPILYHCFQDDVIIRPNVVKTGSFPVTYNAIPKKAPSVTEDPKMPGQVVTTPLVSQPALFAGKGFNADKACIEGRIEKVRNVTKFPIKYVRYAAEFVKLVIPETIAGTGVPNSIGMIREEQDKVAQRARFDRVAPIMSTQTENSIKAFIKTEMYAAAKAPRNISTMAPEITIQSSAYSLPMAKIFKKIPWYCPGKNPKEITLRLAEVCLQDPDHELEEGDYTCMDGTQSPDYSDLLLLPIYMRYFAKQYRGQFKNLYNQIYKQRATTSSGVPYNPEMTIRSGSSITTHAGTLNNAFNIYAALRDMGYDETTAWDKVGAVFGDDSLNANHQGEFHSYIEHVTKVLGMRYKSNLRERGQPVLFLGRYFVDPITSYDSFADPMRTIGKLHATANKNVSVEQGAANKAHGYITTDSKTPIIGAWARRVLEITKKKFKNGTGEEQYRCSNAWPQKDEAAIRAAMAAVLEVDEAQLIAQNEAVLKVNSLDQFPVVFDTYYDHKQLAEVDGQLVGTDLHIKEEDERQPETSIDSVPSTGPPPSNGDPNAGGKPTDGPSKGKRKVKGRRPRTAGDPATLRLTDAGSSRRVKPPRKLRPEAKRGGRPIETLVFKNSSLS
notes: also called His-protA; FL His-protA; source: in vitro translated in nuclease-treated rabbit reticulocyte lysates
self-interaction efficiency, % of FL to FL protein A self-interaction [1]: 17%
self-interaction efficiency, % of FL to FL protein A self-interaction [2]: 94%
self-interaction efficiency, % of FL to FL protein A self-interaction [3]: 108%
self-interaction efficiency, % of FL to FL protein A self-interaction [4]: 96%
